Data published in patent US20160354480A1 (VECT HORUS, published 2016).
Bridge positions count the residues as written; N and C are the ends. Square brackets hold non-standard residues; d marks the D form. Ends that are not written are not given here. * marks the point of attachment. Pen = CC(C)(S)[C@H](N)C(=O)O; Tle = CC(C)(C)[C@H](N)C(=O)O; Pip = O=C(O)[C@@H]1CCCCN1; Propionyl = CCC(=O)*; Sar = CNCC(=O)O

Assays:
[1] = biological target: T1, rat neurotensin receptor type 1 (rat, UniProt P20789 1-424); assay: competition with [3H]-neurotensin on membranes of HEK 293 cells expressing rat NTR-1; Ki from mean IC50 by Cheng-Prusoff
T1 construct: whole, on cells; Used as membrane homogenates of transfected HEK 293 cells (0.75 ug/well), not intact cells; also called rNTR-1; rNTR1
T1 sequence (P20789 whole entry): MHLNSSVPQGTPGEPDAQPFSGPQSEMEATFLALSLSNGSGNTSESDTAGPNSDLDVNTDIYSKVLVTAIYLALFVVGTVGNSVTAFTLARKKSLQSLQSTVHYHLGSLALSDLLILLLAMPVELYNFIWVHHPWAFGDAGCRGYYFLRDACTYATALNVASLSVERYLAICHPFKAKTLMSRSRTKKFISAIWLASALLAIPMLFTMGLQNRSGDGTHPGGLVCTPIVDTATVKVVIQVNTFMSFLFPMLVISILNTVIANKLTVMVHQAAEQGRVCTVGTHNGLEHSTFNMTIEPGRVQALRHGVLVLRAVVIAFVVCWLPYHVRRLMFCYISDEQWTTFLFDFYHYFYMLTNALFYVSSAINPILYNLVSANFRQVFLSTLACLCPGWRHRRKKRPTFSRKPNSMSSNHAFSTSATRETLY

[2] = biological target: T2, human neurotensin receptor type 1 (human, UniProt P30989 1-418); assay: competition with [3H]-neurotensin on membranes of CHO cells expressing human NTR-1; Ki from mean IC50 by Cheng-Prusoff
T2 construct: whole, on cells; Used as cell membrane homogenates (0.5 ug/well), not intact cells; also called hNTR-1; Human NTR-1
T2 sequence (P30989 whole entry): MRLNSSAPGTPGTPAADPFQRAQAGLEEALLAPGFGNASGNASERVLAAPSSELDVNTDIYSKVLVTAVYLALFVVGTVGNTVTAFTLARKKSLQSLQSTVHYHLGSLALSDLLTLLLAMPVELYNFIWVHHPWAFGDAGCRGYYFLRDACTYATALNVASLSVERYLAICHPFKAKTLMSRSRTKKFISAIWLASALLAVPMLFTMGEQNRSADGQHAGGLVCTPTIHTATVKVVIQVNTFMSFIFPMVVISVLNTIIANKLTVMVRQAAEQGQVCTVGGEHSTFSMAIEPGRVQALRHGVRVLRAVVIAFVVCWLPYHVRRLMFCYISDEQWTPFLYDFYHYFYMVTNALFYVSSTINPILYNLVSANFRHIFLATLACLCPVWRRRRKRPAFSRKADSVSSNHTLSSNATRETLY

Row | Binder | Ki [1] | Ki [2]
1 | Propionyl-[dC]M[Pip]RLR[Sar][Pen]KRPY[Tle]L-OH (disulfide 1-8; SMILES CCC(=O)N[C@@H]1CSSC(C)(C)[C@@H](C(=O)N[C@@H](CCCCN)C(=O)N[C@@H](CCCNC(=N)N)C(=O)N2CCC[C@H]2C(=O)N[C@@H](Cc2ccc(O)cc2)C(=O)N[C@H](C(=O)N[C@@H](CC(C)C)C(=O)O)C(C)(C)C)NC(=O)CN(C)C(=O)[C@H](CCCNC(=N)N)NC(=O)[C@H](CC(C)C)NC(=O)[C@H](CCCNC(=N)N)NC(=O)[C@@H]2CCCCN2C(=O)[C@H](CCSC)NC1=O) [compound XX, SEQ ID NO: 11-[Lys8, Tle12]NT(8-13)] | 0.08 nM | 0.11 nM
2 | KRPY[Tle]L (X stands for Tle) [[Lys8, Tle12]NT(8-13)] | 0.68 nM | 0.22 nM
3 | KRPW[Tle]L (X stands for Tle) [[Lys8, Trp11, Tle12]NT(8-13)] | 3.31 nM | 13.8 nM
4 | RKPY[Tle]L (X stands for Tle) [[Lys9, Tle12]NT(8-13)] | 4.2 nM | 1.7 nM
5 | Propionyl-[dC]M[Pip]RLR[Sar]CKRPY[Tle]L-OH (disulfide 1-8; SMILES CCC(=O)N[C@@H]1CSSC[C@@H](C(=O)N[C@@H](CCCCN)C(=O)N[C@@H](CCCNC(=N)N)C(=O)N2CCC[C@H]2C(=O)N[C@@H](Cc2ccc(O)cc2)C(=O)N[C@H](C(=O)N[C@@H](CC(C)C)C(=O)O)C(C)(C)C)NC(=O)CN(C)C(=O)[C@H](CCCNC(=N)N)NC(=O)[C@H](CC(C)C)NC(=O)[C@H](CCCNC(=N)N)NC(=O)[C@@H]2CCCCN2C(=O)[C@H](CCSC)NC1=O) [compound XVI, SEQ ID NO: 9-[Lys8, Tle12]NT(8-13)] | 0.12 nM | 0.15 nM
6 | Propionyl-[dC]M[Pip]RLR[Sar]CKRPW[Tle]L-OH (disulfide 1-8; SMILES CCC(=O)N[C@@H]1CSSC[C@@H](C(=O)N[C@@H](CCCCN)C(=O)N[C@@H](CCCNC(=N)N)C(=O)N2CCC[C@H]2C(=O)N[C@@H](Cc2c[nH]c3ccccc23)C(=O)N[C@H](C(=O)N[C@@H](CC(C)C)C(=O)O)C(C)(C)C)NC(=O)CN(C)C(=O)[C@H](CCCNC(=N)N)NC(=O)[C@H](CC(C)C)NC(=O)[C@H](CCCNC(=N)N)NC(=O)[C@@H]2CCCCN2C(=O)[C@H](CCSC)NC1=O) [compound XIX, SEQ ID NO: 9-[Lys8, Trp11, Tle12]NT(8-13)] | 0.03 nM | 6.34 nM

Now from value to binder:

Row | Ki [1] | Ki [2] | Binder
7 | 0.85 nM | 3.1 nM | RRPW[Tle]L (X stands for Tle) [[Trp11, Tle12]NT(8-13)]
8 |  | 0.13 nM | Propionyl-[dC]M[Pip]RLR[Sar]CGGGKPRRPYIL-OH (disulfide 1-8; SMILES CCC(=O)N[C@@H]1CSSC[C@@H](C(=O)NCC(=O)NCC(=O)NCC(=O)N[C@@H](CCCCN)C(=O)N2CCC[C@H]2C(=O)N[C@@H](CCCNC(=N)N)C(=O)N[C@@H](CCCNC(=N)N)C(=O)N2CCC[C@H]2C(=O)N[C@@H](Cc2ccc(O)cc2)C(=O)N[C@H](C(=O)N[C@@H](CC(C)C)C(=O)O)[C@@H](C)CC)NC(=O)CN(C)C(=O)[C@H](CCCNC(=N)N)NC(=O)[C@H](CC(C)C)NC(=O)[C@H](CCCNC(=N)N)NC(=O)[C@@H]2CCCCN2C(=O)[C@H](CCSC)NC1=O) [compound X, SEQ ID NO: 9-GGG-NT(6-13)]
9 | 0.19 nM | 0.47 nM | Propionyl-[dC]M[Pip]RLR[Sar]CRKPY[Tle]L-OH (disulfide 1-8; SMILES CCC(=O)N[C@@H]1CSSC[C@@H](C(=O)N[C@@H](CCCNC(=N)N)C(=O)N[C@@H](CCCCN)C(=O)N2CCC[C@H]2C(=O)N[C@@H](Cc2ccc(O)cc2)C(=O)N[C@H](C(=O)N[C@@H](CC(C)C)C(=O)O)C(C)(C)C)NC(=O)CN(C)C(=O)[C@H](CCCNC(=N)N)NC(=O)[C@H](CC(C)C)NC(=O)[C@H](CCCNC(=N)N)NC(=O)[C@@H]2CCCCN2C(=O)[C@H](CCSC)NC1=O) [compound XVII, SEQ ID NO: 9-[Lys9, Tle12]NT(8-13)]
10 | 0.06 nM | 0.4 nM | Propionyl-[dC]M[Pip]RLR[Sar]CRRPY[Tle]L-OH (disulfide 1-8; SMILES CCC(=O)N[C@@H]1CSSC[C@@H](C(=O)N[C@@H](CCCNC(=N)N)C(=O)N[C@@H](CCCNC(=N)N)C(=O)N2CCC[C@H]2C(=O)N[C@@H](Cc2ccc(O)cc2)C(=O)N[C@H](C(=O)N[C@@H](CC(C)C)C(=O)O)C(C)(C)C)NC(=O)CN(C)C(=O)[C@H](CCCNC(=N)N)NC(=O)[C@H](CC(C)C)NC(=O)[C@H](CCCNC(=N)N)NC(=O)[C@@H]2CCCCN2C(=O)[C@H](CCSC)NC1=O) [compound XV, SEQ ID NO: 9-[Tle12]NT(8-13)]
11 | 0.02 nM | 2.98 nM | Propionyl-[dC]M[Pip]RLR[Sar]CRRPW[Tle]L-OH (disulfide 1-8; SMILES CCC(=O)N[C@@H]1CSSC[C@@H](C(=O)N[C@@H](CCCNC(=N)N)C(=O)N[C@@H](CCCNC(=N)N)C(=O)N2CCC[C@H]2C(=O)N[C@@H](Cc2c[nH]c3ccccc23)C(=O)N[C@H](C(=O)N[C@@H](CC(C)C)C(=O)O)C(C)(C)C)NC(=O)CN(C)C(=O)[C@H](CCCNC(=N)N)NC(=O)[C@H](CC(C)C)NC(=O)[C@H](CCCNC(=N)N)NC(=O)[C@@H]2CCCCN2C(=O)[C@H](CCSC)NC1=O) [compound XVIII, SEQ ID NO: 9-[Trp11, Tle12]NT(8-13)]
